# Laboratory results: patent US8574882B2, “Thermostable 1,5-anhydroglucitol dehydrogenase, and method for measurement of 1,5-anhydroglucitol by using the same” (Nippon Kayaku Kabushiki Kaisha, priority 2008, dated 2013)
# B1: Ver. 1.0: thermostable 1,5-AG dehydrogenase, protein 21) of b101; net vs SEQ ID NO: 4: P50Q (protein)
# chain: MEFGGQPDIVIIGSGIGGASIAAGLSASGADILILEAGESLPDRPENRDQHAIFQRGFFRPKEFWYETDGTPFNPGNYYNVGGNSKFYGAVLVRYRREDFEELAHLEGVSPAWPFAYDELEPWYCKAEELFQVRGELGDDPTEPYHSKPYSYPAIRDESPIADLRARLKKAGLHPASLPLGVDIERWLAKAKTPWDAHPNSNDGKMDAETCPLALALKHPNVGLETSARVTKLETGPDGKTIVAVHYVKNGEALVLRPKLVILSAGAVQSAALLLRSGLANRSDQVGRNFMNHNASAVIGFDPRYRNDSVYQKTFGFNDYYLSDGAGGPPLGNVQLLGRVSGAILKSNMRQVPEWFLNRIAGHTIDFYAMSEDLPSPESRVSVDGDRIILHWVRSNWKAHLMLVDKLKSALRAAGFPVVLSRAFDRRTPSHQCGTVRIGDNPATAPLDPYCRAYDHPNLYVVDASFLPTSAAVNPALTIAAQALRVADHLNREVLA
# modifications: Pseudomonas sp. NK-85001
# What was measured:
# [1] = 1,5-AG dehydrogenase activity determination of crude enzyme solution (L-sorbose, DCIP, 1-m-PMS, decrease in absorbance at 600 nm); format: biochemical; conditions: crude enzyme solution, L-sorbose as substrate, 37° C.
# Procedure: The E. coli JM109 strains transformed with the pTrc-PS15DH vectors confirmed in the paragraph (I) to have the insert fragment were inoculated to 3 mL of an LB medium containing 100 μg/mL ampicillin and cultured at 28° C. for 14 hours. Of this culture solution, a 0.2 mL aliquot was inoculated to 10 mL of an LB medium (containing 100 μg/mL ampicillin). Approximately 3 hours later, the rise of OD600 of the culture solution to 0.4 to 0.7 was confirmed, and 1,5-AG dehydrogenase expression in E. coli was then induced by the addition of 0.1 M IPTG (final concentration: 0.1 mM) to the medium. This culture solution was further cultured overnight at 28° C. and centrifuged at 10000×g for 5 minutes to precipitate cells. The supernatant was removed, and the pellet was then washed twice with a 0.85% aqueous NaCl solution. Cells were precipitated by centrifugation. Then, the microbial cells were suspended in 1 mL of a 50 mM sodium phosphate buffer, pH 7.5. Triton X-100 was added thereto at a concentration of 0.25%, and the microbial cells were disrupted using a bead impact-type cell disrupter MINI-BEAD BEATER (30 seconds×4, manufactured by Central Scientific Commerce, Inc.) while cooled in ice. After centrifugation at 20000×g for 10 minutes, the supernatant was examined as a crude enzyme solution for its 1,5-AG dehydrogenase activity. The composition of the reaction solution is as described below. Since the 1,5-AG dehydrogenase also reacts with L-sorbose as its substrate, L-sorbose was used for convenience instead of 1,5-AG in the enzymatic activity determination.
# Composition of Reaction Solution:
# The components other than the crude enzyme solution are mixed and kept at 37° C. for 10 minutes. Then, the crude enzyme solution is added to the reaction solution to initiate reaction. Decrease in absorbance at 600 nm for 1 minute with the temperature kept at 37° C. is determined.
# The enzymatic activity can be determined according to the following equation: Enzymatic activity (U/mL)=(Δ600/min×0.6 (mL)×dilution ratio of crude enzyme solution)/(16.3×0.01 (mL)).
# (§1) The E. coli JM109 containing the gene encoding each thermostable 1,5-AG dehydrogenase obtained in the paragraphs to [4] of EXAMPLE 2 was transplanted to 10 mL of an LB liquid medium containing 50 μg/mL ampicillin and 0.1 mM IPTG and shake-cultured at 30° C. for 16 hours. 10 mL of the shake-culture solution was centrifuged at 10000 rpm for 5 minutes. The culture supernatant was removed, and the pellet was then washed twice with a 0.85% aqueous NaCl solution. These microbial cells were suspended in 1 mL of a 50 mM sodium phosphate buffer (pH 7.5) containing 0.25% Triton X-100. The microbial cells were disrupted using a bead impact-type cell disrupter MINI-BEAD BEATER (30 seconds×4, manufactured by Central Scientific Commerce, Inc.) while cooled in ice. After centrifugation at 15000 rpm for 10 minutes, the supernatant was used as a crude enzyme solution. When the crude enzyme solution was heat-treated, the treatment was performed for 10 minutes in a water bath of 45° C., 50° C., 55° C. or 60° C.
# (§2) The enzymatic activity of the 1,5-AG dehydrogenase was calculated by measurement by the same approach as that described in the paragraph (J) of EXAMPLE 1.
# (§3) A specific activity that represents the enzymatic activity of the 1,5-AG dehydrogenase per mg of the crude enzyme solution was calculated according to the following equation: Specific activity (U/mg)=enzymatic activity (U/mL)/protein concentration of crude enzyme solution (mg/mL). Moreover, the rate of residual activity was calculated according to the following equation: Rate of residual activity (%)=(specific activity of crude enzyme solution after heat treatment/specific activity of crude enzyme solution before heat treatment)×100.
# The 1,5-AG dehydrogenase activity was determined based on the method described in EXAMPLE 1, and its specific activity was determined according to the equation described in EXAMPLE 3.
# [2] = Stability of thermostable 1,5-AG dehydrogenase at heat treatment temperature (rate of residual activity); format: physicochemical; conditions: crude enzyme solution, water bath 45° C., 10 minutes
# Procedure: as §1, §2, §3
# [3] = Primary screening of variant gene library after heat treatment of microbial cells (DCIP decolorization with 1,5-AG); format: biochemical; conditions: microbial cells treated at 60° C. for 20 minutes; blue color of DCIP decolorized
# Procedure: Approximately 10100 colonies of the variant gene library were randomly picked up using a colony picker (PM-2s, manufactured by Microtec Co., Ltd.) and subjected to primary screening In the primary screening, a 1.2-mL 96-well square deep well plate (manufactured by NALGE NUNC INTERNATIONAL MK.) was used. The colonies were transplanted to 500 μL of an LB liquid medium containing 50 μg/mL ampicillin and cultured (28° C., 900 rpm) overnight in a 96-well square plate shaker (TITRAMAX 100, manufactured by HEIDOLPH). The 96-well square deep well plate was centrifuged at 2000 rpm for 10 minutes to separate microbial cells, which were then treated at −80° C. for 1 hour. The microbial cells were thawed and then treated at 60° C. for 20 minutes. Active variant enzymes were picked up by suspending the microbial cells thus treated at 60° C. by the addition of 200 μL of a 0.1 M potassium phosphate buffer (pH 7.0) containing 0.5% Triton X-100, 30 μL of 6 mM 2,6-dichlorophenolindophenol (DCIP) and 5 μL of 50 mg/mL 1,5-AG. The blue color of DCIP is decolorized for colonies having the enzymatic activity. As a result, it was observed that the blue color of DCIP was decolorized for colonies carrying a 1,5-AG dehydrogenase Ver. […] 0.
molecule,measurement,setting,value
B1,Specific activity,[1],1.7 U/mg
same,Rate of residual activity after 10-minute treatment at 45° C.,[2],8.3%
same,"Thermostability compared with 1,5-AG dehydrogenase Ver. 0",[3],improved thermostability
